This is an account of results in PMC4222845 (PLoS Pathogens, 2014).

This series deals with the molecule itself. The series is described as follows: SEC; Superdex 200 10/300 GL, 10 mM Tris-HCl pH 7.5, 150 mM NaCl, 0.5 mL/min, 4°C; equivalent molar concentrations, incubated 15 minutes; molecular weight from BioRad gel-filtration standards. A general note: SEC sorts molecules by how far they enter the pores of the column.

B1: IpgC (natural protein)
chain: MSLNITENESISTAVIDAINSGATLKDINAIPDDMMDDIYSYAYDFYNKGRIEEAEVFFRFLCIYDFYNVDYIMGLAAIYQIKEQFQQAADLYAVAFALGKNDYTPVFHTGQCQLRLKAPLKAKECFELVIQHSNDEKLKIKAQSYLDAIQDIKE
notes: also called translocator-specific chaperone from Shigella
With B1, the “stoichiometry N” value amounted to 2.

In general, stoichiometry N refers to the number of molecules, sites or subunits per partner or assembly.
